Source: paper doi:10.1101/2024.04.27.591446 (bioRxiv, 2024)

B1: 1301B7 Fab (Fab, V domains shown)
VH: EVQLVESGAEVKNPGSSVKVSCKASEGTFGSYPIIWVRQAPGQGLEWVGGIIPILGTVIYAQKFQGRVTITGDTYAGSAHMELSGLRSEDTAVFYCARGSYDYGDRLLNYTYYAMDVWGPGTTVTVSS
VL: QPGLTQPPSVSGAPGQRVTISCTGSRSNIGAVYAVHWYQHVPGAAPKLLIYENNNRPSGIPDRFSGSKSGTSASLVITGLQAEDEADYLCQSYDRSVGVVFGGGTRLTVL
B2: 1301B7 recombinant human monoclonal antibody (hmAb), IgG1 (antibody, V domains shown)
VH: B1 VH
VL: B1 VL

Tests used:
[1] = target: SARS-CoV-2 EG5.1 S ectodomain with 6P and furin mutations, trimer (SARS-CoV-2 Omicron EG.5.1, stabilised); test: cryo-EM structure
[2] = target: SARS-CoV-2 Spike Wuhan-Hu-1 (SARS-CoV-2 Wuhan-Hu-1, UniProt P0DTC2); test: ELISA

Binder | stoichiometry N [1] [Fab per Spike trimer] | binding result [2]
B1 | 1 | –
B2 | – | binds
